From publication PMC4868323, “Interaction of Toll-Like Receptors with the Molecular Chaperone Gp96 Is Essential for Its Activation of Cytotoxic T Lymphocyte Response” (PLoS ONE, 2016)
No end group written: not given here.

What was measured:
Assay in all cases: ELISA; biotinylated HBc87-95 on 96-well streptavidin plates; serial dilutions of gp96 0.03–200 μg/mL in 20 mM HEPES pH 7.2, 20 mM NaCl, 2 mM MgCl2, 100 mM KCl, 1.5 h; detected with rat anti-grp94 antibody; 300 μM radicicol as inhibitor
Settings in all cases: both partners purified
[1] = biological target: T1, native mouse gp96 (mgp96) (mouse, UniProt P08113 22-802)
T1 construct: gp96 (GRP94, endoplasmin) purified from mouse liver; also called native gp96; source: purified from healthy mouse livers

[2] = biological target: T2, recombinant wild-type gp96 (gp96-wt), His-tagged (human, UniProt P14625 22-803, FITC label on the portion used for flow cytometry (sites not given))
T2 construct: human gp96 (GRP94), mature protein; cDNA in pET28a(+) subcloned with its His tag into pFastBac1; the 3' primer ends at ...EKDEL stop; The tag's end is read from the printed sense primer (MGSSHH..., as in pET28a); Unlabelled in the co-IP and ELISA, FITC-labelled in flow cytometry; also called FITC-gp96-wt; glucose-regulated protein 94; source: baculovirus (Bac-to-Bac, pFastBac1), purified …

[3] = biological target: T3, gp96 with Ala substitutions at the conserved residues in the first half of the CBD (gp96-mut), His-tagged (human, UniProt P14625 22-803, GWSGNMER (653-660) to AASAAAAA, read from the printed gp96-mut primer, FITC label on the portion used for flow cytometry (sites not given))
T3 construct: human gp96 (GRP94), mature protein, with Ala substitutions in the GWXGNMER motif of the CBD; positions follow the legend's 653-660 for the same eight residues deleted in gp96-ΔCBD; also called mutated gp96; mutant gp96; source: baculovirus (Bac-to-Bac, pFastBac1), purified (Ni-sepharose, Hitrap Q HP, Superdex 200)

Measured: binding result

T2 sequence (P14625 22-803): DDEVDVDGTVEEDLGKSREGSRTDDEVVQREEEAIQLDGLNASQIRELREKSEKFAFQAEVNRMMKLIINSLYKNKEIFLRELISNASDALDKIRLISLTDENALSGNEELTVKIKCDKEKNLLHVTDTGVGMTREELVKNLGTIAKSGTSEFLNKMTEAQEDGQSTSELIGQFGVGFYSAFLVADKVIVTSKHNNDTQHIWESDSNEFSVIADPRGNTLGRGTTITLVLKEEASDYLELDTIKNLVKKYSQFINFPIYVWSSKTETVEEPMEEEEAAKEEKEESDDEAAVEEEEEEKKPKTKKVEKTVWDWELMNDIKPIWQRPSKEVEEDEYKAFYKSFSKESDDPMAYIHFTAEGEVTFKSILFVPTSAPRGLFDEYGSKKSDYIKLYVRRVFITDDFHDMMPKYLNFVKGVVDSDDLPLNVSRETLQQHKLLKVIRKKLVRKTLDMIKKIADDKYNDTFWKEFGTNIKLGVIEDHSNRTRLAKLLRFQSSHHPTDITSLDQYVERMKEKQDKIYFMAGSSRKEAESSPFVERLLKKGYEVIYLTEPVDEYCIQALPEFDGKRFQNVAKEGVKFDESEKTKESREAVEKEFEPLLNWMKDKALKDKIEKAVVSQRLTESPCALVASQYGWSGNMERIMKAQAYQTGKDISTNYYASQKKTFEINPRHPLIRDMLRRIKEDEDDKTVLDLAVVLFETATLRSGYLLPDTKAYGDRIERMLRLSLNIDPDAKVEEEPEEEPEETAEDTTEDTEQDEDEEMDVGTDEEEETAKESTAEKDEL
T1 sequence (P08113 22-802): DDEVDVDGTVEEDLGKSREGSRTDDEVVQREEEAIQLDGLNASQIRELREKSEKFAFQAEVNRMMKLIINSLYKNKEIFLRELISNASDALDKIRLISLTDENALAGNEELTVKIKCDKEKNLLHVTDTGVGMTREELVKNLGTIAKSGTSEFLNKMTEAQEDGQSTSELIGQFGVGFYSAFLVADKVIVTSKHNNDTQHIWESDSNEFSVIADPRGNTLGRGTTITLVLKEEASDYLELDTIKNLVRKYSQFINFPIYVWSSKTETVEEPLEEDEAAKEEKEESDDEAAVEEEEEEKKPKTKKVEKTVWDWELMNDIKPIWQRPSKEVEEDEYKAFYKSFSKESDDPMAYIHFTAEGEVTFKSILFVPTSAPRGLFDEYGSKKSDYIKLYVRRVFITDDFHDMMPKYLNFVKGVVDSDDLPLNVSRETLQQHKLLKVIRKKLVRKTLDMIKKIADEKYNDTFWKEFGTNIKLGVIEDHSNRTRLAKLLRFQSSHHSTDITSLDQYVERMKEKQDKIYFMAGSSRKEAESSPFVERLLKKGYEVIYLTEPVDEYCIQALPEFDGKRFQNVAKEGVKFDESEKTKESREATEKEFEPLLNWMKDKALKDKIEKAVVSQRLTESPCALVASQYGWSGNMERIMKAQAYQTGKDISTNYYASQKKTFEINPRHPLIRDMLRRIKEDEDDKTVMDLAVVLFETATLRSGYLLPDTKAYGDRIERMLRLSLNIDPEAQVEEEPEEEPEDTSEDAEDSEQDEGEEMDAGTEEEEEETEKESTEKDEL
T3 sequence (P14625 other isoform, or with tags, fused parts or gaps with the stated changes): as the sequence (P14625 22-803) above, with G632A, W633A, G635A, N636A, M637A, E638A, R639A counted along it

B1: biotinylated peptide HBc87-95 (peptide)
peptide: SYVNTNMGL
modifications: also: biotinylated, position not given here
notes: also called HBcAg_(87–95); source: synthetic peptide (GL Biochem Ltd.)
binds: all assays above
